Experimental findings from patent publication US10040853B2, “Methods and compositions involving NKG2D inhibitors and cancer” (Fred Hutchinson Cancer Research Center, priority 2011, dated 2018) are described below.

What all share (type): cell-based, human
For series [1], the system named is MCF-7-TF cells. Put plainly: Cell cycle analysis by propidium iodide staining. The note with it: MCF-7-TF cells plated 24 h at near confluence without growth factors; Abs each 10 μg/ml. How it is done:
DNA contents were determined with 70% EtOH-permeabilized and fixed cells treated with PI/RNase staining buffer (BD Pharmingen). Prior to analysis, cells were plated for 24 h in the presence or absence of each 10 μg/ml anti-MIC and -ULBP3 and -ULBP4 mAb or control Ig. Flow cytometry data were analysed using FlowJo cell cycle software with quantitative analysis based on Dean-Jett-Fox model curve fitting. Cellular ATP was determined using the ATPlite luminescence assay system (PerkinElmer). Real-time oxygen consumption and extracellular acidification rates were measured employing the Seahorse Bioscience Extracellular Flux Analyzer XF24 with cells (3×10^4) seeded in custom 24-well plates and grown overnight (34). Metabolic rates were calculated from multiple measurements in buffer-free medium within one h at 37° C. Differences in cell growth rates were accounted for by using fluorescence emission values of Hoechst stainings to calculate normalization factors for cell number corrections.
The inventors thus explored effects on cellular functions resulting from NKG2D stimulation using the MCF-7 mock-transfected control and MCF-7-TF model cells. Cells were plated at near confluence in the absence of growth factors with or without the relevant anti-MIC and anti-ULBP1/3/4 Abs or control Ig 24 h before assay time (FIG. 7). […]

The subject of series [2] is AKT(S473) phosphorylation. As to the kind of experiment: Inducible AKT phosphorylation in siRNA-transduced MCF-7 cells. The note with it: lentiviral siRNA transduction. From the text:
(§1) NKG2D was immunoprecipitated from standard NP-40 buffer lysates of FACSAria-sorted EpCAM^+CD45^− cancer cells (˜5×10^6 per lane), tumor lines (˜5×10^7 cells; 2×10^7 cells with BT-20), and transfectants (5×10^6 cells) using mAb 5C6 immobilized on AminoLink Plus Coupling Resin (Pierce). DAP10 was immunoprecipitated using rabbit polyclonal antibodies (FL-93; Santa Cruz Biotechnology). Immunoblots were probed with polyclonal antibodies to NKG2D or DAP10 (N-20 and N-17; Santa Cruz Biotechnology), or Grb2 (Cell Signaling Technology) and developed using secondary reagents and Supersignal West Dura Extended Duration Substrate (Pierce). Immunoprecipitation and immunoblot detection of mouse NKG2D utilized a rat mAb (clone 191004; R&D Systems) and goat polyclonal reagent (H-15; Santa Cruz Biotechnology), respectively. […] Phosphoproteins and protein controls were detected using rabbit polyclonal antibodies (to P-mTOR, P-S6K1, and P-4E-BP1), mAbs (clones 7C10, 236B4, and 53H11), and anti-rabbit IgG-HRP (all from Cell Signaling Technology). MAPKs were detected with cells grown to semi-confluence in 6-well plates and desensitized for 24 h. […]

For another series, the system named is NKG2D. Put plainly: NKG2D protein depletion by siRNA (immunoblot). Particulars: CD8 T cells, 2×10^6 per lane.
Text: as §1
For orientation: Immunoblotting shows a protein as a band on a membrane.

For series [3], the system named is MCF-7-TF cells. Put plainly: EMT-like phenotype of MCF-7-TF cells (phase contrast, IF microscopy, immunoblot). From the text:
Diagnostic of EMT, among other criteria, are reduced expression of E-cadherin and induction of N-cadherin (Polyak and Weinberg, 2009; Thiery et al., 2009; Yang and Weinberg, 2008). […] Among key transcription factors is SNAI1 and Twist, which were induced in MCF-7-TF as well as in MCF-10A-TF and SUM149PT-TF cells (FIG. 8C). MCF-7-TF cells also scored increased migratory and invasive activities in Matrigel assays (FIG. 8D). Both ERK- and AKT-initiated signaling have been implicated in cancer EMT (Thiery et al., 2009).

Series [4] has as its system MCF-7-TF cells. Put plainly: Migration through porous filters and invasion in Matrigel assay. The protocol: MCF-7 cells were evaluated for stimulation of cellular migration through porous filters and for invasion of reconstituted basement membranes in MATRIGEL assays (FIG. 10).

B1: RNAi targeting of NKG2D: lentivirally expressed hairpin siRNA targeting NKG2D (KLRK1) mRNA positions 690-710; oligonucleotides SEQ ID NO:19 and 20 (nucleic acid, listed as Homo sapiens)
chain 1: CTAGACCCAACCTACTAACAATAATTTCAAGAGAATTATTGTTAGTAGGTTGGGTTTTTGAT
chain 2: ATCAAAAAACCCAACCTACTAACAATAATTCTCTTGAAATTATTGTTAGTAGGTTGGGT
modifications: the letters are possibly those of the target site
For the molecule B1, the “effect on enlarged proportions of cells in S and G2 phase” value in the series on MCF-7-TF cells [1] is listed as “reversed”. The “inducible AKT(S473) phosphorylation” value in series [2] was “Absence of inducible AKT(S473) phosphorylation”. The “depletion of NKG2D” value in the series on NKG2D was “depletion”. In the series on MCF-7-TF cells [3] (IF microscopy and immunoblot), the “changes in epithelial and mesenchymal marker proteins (E-cadherin, N-cadherin)” value was “reversed”. Besides, the cell morphology entry with MCF-7-TF cells [3] (phase contrast microscopy) was “restored the parental cell morphology”. Further, the “migratory and invasive activities” value in the series with MCF-7-TF cells [4] is reported as “suppressed”.
